The values below are quoted from earlier work in publication PMC5840170.

Like-named read-outs stand apart in the source and are kept apart here.

The target in data set [1] is VPS4 MIT (Homo sapiens) (UniProt Q9UN37).
In data set [2] the target is VPS4 (Homo sapiens) (UniProt Q9UN37).
In data set [3] the target is VPS4 MIT (Homo sapiens) (UniProt Q9UN37). This is another data set of the same source.
Data set [4] deals with EAP20 (Vps25) winged helix (wH) (Homo sapiens) (UniProt Q9BRG1).
Data set [5] has as its target EAP20 (Homo sapiens) (UniProt Q9BRG1).
For data set [6], the target named is VPS4 MIT (Homo sapiens) (UniProt Q9UN37). This is another data set of the same source.
For data set [7], the target named is CdvB wH domain (Sulfolobus acidocaldarius) (UniProt Q4J924).
Chain of CdvB wH domain (Sulfolobus acidocaldarius) (Q4J924 213-261): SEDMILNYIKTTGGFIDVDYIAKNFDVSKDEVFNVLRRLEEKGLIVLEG
Data set [8] shares this target. The source holds these as a separate data set.
Data set [9] deals with CdvC MIT domain (Sulfolobus acidocaldarius) (UniProt F2Z6D2).
Chain of CdvC MIT domain (Sulfolobus acidocaldarius) (F2Z6D2 8-76): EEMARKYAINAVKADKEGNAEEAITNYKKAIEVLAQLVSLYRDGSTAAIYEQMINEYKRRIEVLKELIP
The target of data set [10] is CdvC MIT (Sulfolobus acidocaldarius) (UniProt F2Z6D2).
Chain of CdvC MIT (Sulfolobus acidocaldarius) (F2Z6D2 8-76): as above
Data set [11] addresses CdvC MIT domain (Sulfolobus acidocaldarius) (UniProt F2Z6D2). The source holds these as a separate data set.
Data set [12] deals with CdvC MIT (Sulfolobus acidocaldarius) (UniProt F2Z6D2). The source holds these as a separate data set.
For data set [13], the target named is CdvC MIT domain (Sulfolobus acidocaldarius) (UniProt F2Z6D2). This is another data set of the same source.
In data set [14] the target is Vps4 (Saccharomyces cerevisiae) (UniProt P52917).
Chain of Vps4 (Saccharomyces cerevisiae) (P52917 whole entry): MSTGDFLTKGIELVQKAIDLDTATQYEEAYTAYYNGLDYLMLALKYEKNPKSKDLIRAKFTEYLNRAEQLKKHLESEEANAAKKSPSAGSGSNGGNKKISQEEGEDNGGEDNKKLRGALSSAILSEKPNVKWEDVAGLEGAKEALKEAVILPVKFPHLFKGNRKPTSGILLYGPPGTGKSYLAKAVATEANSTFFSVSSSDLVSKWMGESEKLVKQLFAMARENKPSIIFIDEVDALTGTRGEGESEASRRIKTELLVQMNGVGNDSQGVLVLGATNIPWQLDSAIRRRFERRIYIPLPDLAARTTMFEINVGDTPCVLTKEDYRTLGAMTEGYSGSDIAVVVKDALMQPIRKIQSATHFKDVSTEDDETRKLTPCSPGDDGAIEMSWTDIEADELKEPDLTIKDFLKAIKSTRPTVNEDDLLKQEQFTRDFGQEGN
Data set [15] deals with Vps4 MIT (Saccharomyces cerevisiae) (UniProt P52917).
Chain of Vps4 MIT (Saccharomyces cerevisiae) (P52917 1-83): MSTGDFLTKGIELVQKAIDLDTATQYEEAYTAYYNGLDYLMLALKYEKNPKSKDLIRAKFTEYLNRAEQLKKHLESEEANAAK
The target of data set [16] is ESCRT-III subunit (Vps2) α5 helix (Saccharomyces cerevisiae) (UniProt P36108).
Chain of ESCRT-III subunit (Vps2) α5 helix (Saccharomyces cerevisiae) (P36108 165-184): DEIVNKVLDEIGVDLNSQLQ

Chain of VPS4 MIT (Homo sapiens) (Q9UN37 1-83): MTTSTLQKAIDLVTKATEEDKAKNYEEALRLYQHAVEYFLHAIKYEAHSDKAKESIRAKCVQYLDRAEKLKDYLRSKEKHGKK
Chain of CdvA E3B (Q4J923 216-238): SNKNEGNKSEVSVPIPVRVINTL
Chain of CdvB1 C-terminus (Q4JBG6 195-214): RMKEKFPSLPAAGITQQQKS
Chain of VPS4 (Homo sapiens) (Q9UN37 whole entry): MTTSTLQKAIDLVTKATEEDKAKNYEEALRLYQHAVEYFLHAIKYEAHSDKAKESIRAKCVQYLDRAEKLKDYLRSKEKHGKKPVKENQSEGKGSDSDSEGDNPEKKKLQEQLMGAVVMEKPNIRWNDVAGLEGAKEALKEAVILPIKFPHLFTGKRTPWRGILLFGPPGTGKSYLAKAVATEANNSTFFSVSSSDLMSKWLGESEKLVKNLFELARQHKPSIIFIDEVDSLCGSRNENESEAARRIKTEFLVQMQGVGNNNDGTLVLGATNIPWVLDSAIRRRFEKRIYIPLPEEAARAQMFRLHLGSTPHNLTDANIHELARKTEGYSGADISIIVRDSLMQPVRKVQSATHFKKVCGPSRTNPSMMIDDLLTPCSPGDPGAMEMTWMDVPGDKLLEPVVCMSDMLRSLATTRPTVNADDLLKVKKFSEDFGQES
Chain of CdvA E3B peptide (Q4J923 214-238): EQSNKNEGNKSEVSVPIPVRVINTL
Chain of CHMP4 (Q9H444 2-224): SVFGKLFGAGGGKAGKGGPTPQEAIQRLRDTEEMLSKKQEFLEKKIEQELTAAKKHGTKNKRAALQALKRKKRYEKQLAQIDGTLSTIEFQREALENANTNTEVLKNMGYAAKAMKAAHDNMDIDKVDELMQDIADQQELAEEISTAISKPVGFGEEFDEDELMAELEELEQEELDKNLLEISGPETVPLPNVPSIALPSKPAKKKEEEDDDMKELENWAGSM
Chain of Vps2 MIM1 (P36108 211-232): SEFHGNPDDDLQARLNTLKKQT
Chain of CHMP6 (Vps20) (Q96FZ7 2-201): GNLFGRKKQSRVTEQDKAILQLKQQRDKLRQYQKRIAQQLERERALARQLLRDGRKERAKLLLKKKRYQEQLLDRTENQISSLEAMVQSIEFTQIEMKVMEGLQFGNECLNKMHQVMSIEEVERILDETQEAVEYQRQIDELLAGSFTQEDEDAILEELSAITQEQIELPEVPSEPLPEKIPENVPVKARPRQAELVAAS
Chain of CHMP6 (Q96FZ7 2-201): as above
Chain of CdvB 177-261 (Q4J924 177-261): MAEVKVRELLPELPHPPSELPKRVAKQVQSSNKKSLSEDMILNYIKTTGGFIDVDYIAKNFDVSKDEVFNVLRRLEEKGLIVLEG
Chain of EAP20 (Vps25) winged helix (wH) (Homo sapiens) (Q9BRG1 102-176): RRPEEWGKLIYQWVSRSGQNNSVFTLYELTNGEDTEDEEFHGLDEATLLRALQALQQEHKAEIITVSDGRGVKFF
Chain of Vps2 (P36108 whole entry): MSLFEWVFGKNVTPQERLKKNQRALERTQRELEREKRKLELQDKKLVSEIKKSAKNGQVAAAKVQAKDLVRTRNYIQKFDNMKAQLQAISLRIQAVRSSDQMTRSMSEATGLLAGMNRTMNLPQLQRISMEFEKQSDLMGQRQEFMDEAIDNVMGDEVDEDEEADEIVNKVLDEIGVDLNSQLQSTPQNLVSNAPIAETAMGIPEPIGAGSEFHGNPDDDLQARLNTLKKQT
Chain of Vps4 central pore loops (P52917 whole entry, looked up): as the sequence (P52917 whole entry) above
Chain of EAP20 (Homo sapiens) (Q9BRG1 whole entry): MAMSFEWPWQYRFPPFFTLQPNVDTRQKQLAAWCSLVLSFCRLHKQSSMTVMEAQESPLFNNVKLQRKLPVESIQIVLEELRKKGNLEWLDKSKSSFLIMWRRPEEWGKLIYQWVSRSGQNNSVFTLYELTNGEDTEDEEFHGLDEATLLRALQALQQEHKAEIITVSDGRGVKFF
Chain of CdvB2 C-terminus (Q4J8Y4 200-219): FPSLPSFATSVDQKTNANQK

Regarding CHMP1A MIM1 (from UniProt Q9HD42), the Kd in [1] and in [2] was 4.5 µM in each case.
Turning to CHMP4 (from UniProt Q9H444), the Kd in data set [3] is > 100 µM.
As to CHMP6 (Vps20) (from UniProt Q96FZ7), the Kd in data set [4] is 7 µM.
In the case of CHMP6 (from UniProt Q96FZ7), in data set [5], the Kd is 7 µM.
Turning to CHMP6 MIM2 (from UniProt Q96FZ7), the Kd in data set [6] is 30 µM.
CdvA E3B (from UniProt Q4J923): in data set [7], the Kd is 6 µM.
On to CdvA E3B peptide (from UniProt Q4J923), for which the Kd in data set [8] is 6 µM.
Regarding CdvB1 C-terminus (from UniProt Q4JBG6), in data set [9], the Kd was > 100 µM.
Turning to “CdvB1 C-terminus peptide (from UniProt Q4JBG6)”, the dissociation constant (Kd) in data set [10] was > 100 µM.
Turning to CdvB2 C-terminus (from UniProt Q4J8Y4), the Kd in data set [11] is > 100 µM.
With “CdvB2 C-terminus peptide (from UniProt Q4J8Y4)”, the Kd in data set [12] was > 100 µM.
On to CdvB 177-261 (from UniProt Q4J924), for which the dissociation constant Kd in data set [13] is 30 µM.
Turning to Vps2 (from UniProt P36108), in data set [14], the Kd was 30 µM.
For Vps2 MIM1 (from UniProt P36108), the Kd in [15] is 30 µM.
Consider “Vps4 central pore loops (from UniProt P52917)”, for which the Kd in [16] is 2 µM.
